Results on 167 variants are retold here after the Human Domainome abundance scans (Beltran et al. 2025).

B1: Protein S100-G, residues 1 to 79; numbered along this chain, P02633 (parent)
chain: MSAKKSPEELKGIFEKYAAKEGDPNQLSKEELKLLLQTEFPSLLKGPSTLDELFEELDKNGDGEVSFEEFQVLVKKISQ

± gives the uncertainty stated by the source.

In this data set the parent is B1. Description: abundance fitness (aPCA) (normalised: wild type 0, dead -1); higher = more abundant; growth selection in yeast, the domain comes from the species named. As to conditions: Bos taurus.
Regarding G22D, the abundance fitness is -0.167 ± 0.095.

On to G22Q, for which the abundance fitness is -0.231 ± 0.078.

Take G22R: the abundance fitness is -0.013 ± 0.068.

As for V72D, the abundance fitness is -0.068 ± 0.1.

Turning to V72I, the abundance fitness was -0.022 ± 0.083.

On to A19D, for which the abundance fitness was -0.034 ± 0.088.

Regarding A19L, the abundance fitness amounted to 0.02 ± 0.064.

As for E69F, the abundance fitness was -0.215 ± 0.1.

Turning to E69K, the abundance fitness was -0.016 ± 0.099.

As to E69N, the abundance fitness is -0.215 ± 0.1.

As for L53N, the abundance fitness was 0.109 ± 0.085.

Consider K29A, for which the abundance fitness is 0.025 ± 0.071.

With K29Q, the abundance fitness was -0.099 ± 0.085.

On to K29M, for which the abundance fitness is -0.057 ± 0.077.

In the case of G46D, the abundance fitness was determined as 0.028 ± 0.076.

Consider G46A, for which the abundance fitness was 0.042 ± 0.068.

Turning to G46C, the abundance fitness is -0.023 ± 0.078.

For G46Q, the abundance fitness is -0.008 ± 0.072.

For the variant T38D, the abundance fitness worked out at 0.096 ± 0.098.

T38G: the abundance fitness was -0.1 ± 0.084.

On to K33H, for which the abundance fitness was -0.041 ± 0.088.

In the case of K33W, the abundance fitness is -0.479 ± 0.083.

Regarding S2L, the abundance fitness is -0.015 ± 0.067.

Take S2E: the abundance fitness is -0.105 ± 0.11.

As for F54T, the abundance fitness turned out to be 0.03 ± 0.068.

For the variant F54I, the abundance fitness was 0.051 ± 0.08.

As to F54K, the abundance fitness was -0.048 ± 0.076.

For the variant F54R, the abundance fitness was -0.093 ± 0.063.

As to I13K, the abundance fitness is -0.173 ± 0.092.

As to I13L, the abundance fitness is -0.03 ± 0.066.

On to E15T, for which the abundance fitness was 0.065 ± 0.071.

Turning to E15K, the abundance fitness was -0.031 ± 0.087.

As to G61Y, the abundance fitness was -0.065 ± 0.083.

In the case of G61S, the abundance fitness came to 0.019 ± 0.063.

On to G61H, for which the abundance fitness is -0.163 ± 0.081.

Regarding K5A, the abundance fitness was -0.037 ± 0.072.

For K5E, the abundance fitness was -0.105 ± 0.092.

Turning to K5P, the abundance fitness is -0.253 ± 0.068.

In the case of Q37A, the abundance fitness was -0.058 ± 0.074.

As to Q37M, the abundance fitness was -0.104 ± 0.078.

G63A: the abundance fitness is -0.009 ± 0.08.

Regarding K45N, the abundance fitness is -0.022 ± 0.07.

On to F14G, for which the abundance fitness is -1.53 ± 0.086.

As to F14C, the abundance fitness was -1 ± 0.095.

As to Y17L, the abundance fitness was -0.332 ± 0.063.

Take Q79K: the abundance fitness was determined as 0.046 ± 0.12.

Regarding Q79V, the abundance fitness is -0.086 ± 0.1.

Consider N60G, for which the abundance fitness was found to be 0.027 ± 0.082.

For the variant E30P, the abundance fitness stood at 0.026 ± 0.074.

Consider E30Q, for which the abundance fitness was found to be 0.04 ± 0.078.

With E30T, the abundance fitness is -0.001 ± 0.068.

Take A3F: the abundance fitness was determined as 0.103 ± 0.084.

A3I: the abundance fitness is 0.077 ± 0.081.

Consider Q26P, for which the abundance fitness is -0.523 ± 0.078.

Take Q26L: the abundance fitness turned out to be 0.006 ± 0.064.

Take Q26I: the abundance fitness is 0.003 ± 0.087.

Consider L35E, for which the abundance fitness was -1.11 ± 0.11.

L35K: the abundance fitness was -0.829 ± 0.092.

In the case of L35T, the abundance fitness was -0.174 ± 0.066.

Regarding D58E, the abundance fitness is -0.109 ± 0.09.

Regarding D58T, the abundance fitness was 0.021 ± 0.07.

Turning to D58M, the abundance fitness is -0.026 ± 0.09.

Take K20W: the abundance fitness is -0.181 ± 0.084.

In the case of K20I, the abundance fitness was -0.098 ± 0.085.

K20Q: the abundance fitness stood at 0.04 ± 0.09.

Turning to K20R, the abundance fitness is 0.012 ± 0.066.

With K4L, the abundance fitness was 0.051 ± 0.061.

As to K4H, the abundance fitness is -0.004 ± 0.077.

For P47Q, the abundance fitness was 0.051 ± 0.092.

P47S: the abundance fitness amounted to 0.073 ± 0.077.

Take V65S: the abundance fitness was -0.109 ± 0.061.

For the variant M1S, the abundance fitness is -0.368 ± 0.097.

In the case of M1F, the abundance fitness was -0.193 ± 0.11.

Consider K16V, for which the abundance fitness was -0.179 ± 0.067.

On to K16Q, for which the abundance fitness was -0.122 ± 0.079.

As to K16P, the abundance fitness was -0.34 ± 0.076.

With K16L, the abundance fitness was -0.031 ± 0.062.

As for L27F, the abundance fitness is -0.48 ± 0.093.

Regarding L27I, the abundance fitness came to 0.105 ± 0.1.

With L27P, the abundance fitness was -0.846 ± 0.082.

For the variant L27T, the abundance fitness was -0.335 ± 0.078.

With A18V, the abundance fitness was -0.115 ± 0.072.

For A18F, the abundance fitness was -0.367 ± 0.088.

With A18E, the abundance fitness is -0.904 ± 0.099.

In the case of S48Y, the abundance fitness stood at 0.016 ± 0.07.

S42P: the abundance fitness came out at 0.008 ± 0.075.

On to S42W, for which the abundance fitness was -0.098 ± 0.085.

Regarding E64T, the abundance fitness was 0.073 ± 0.097.

Turning to E64S, the abundance fitness turned out to be 0.002 ± 0.065.

In the case of E64F, the abundance fitness was -0.055 ± 0.085.

As to E64C, the abundance fitness came out at 0.032 ± 0.08.

For the variant E64P, the abundance fitness is 0.008 ± 0.077.

As for L44G, the abundance fitness was -0.047 ± 0.076.

Regarding L44E, the abundance fitness was 0.058 ± 0.1.

For P7W, the abundance fitness was -0.09 ± 0.09.

Turning to E31L, the abundance fitness was -0.045 ± 0.074.

For the variant E31C, the abundance fitness is -0.153 ± 0.097.

In the case of E31W, the abundance fitness is -0.171 ± 0.11.

Consider D23N, for which the abundance fitness was -0.013 ± 0.088.

Regarding D23Y, the abundance fitness is -0.081 ± 0.074.

In the case of D23C, the abundance fitness was -0.064 ± 0.089.

L73T: the abundance fitness was -0.071 ± 0.072.

Take L73E: the abundance fitness is -0.247 ± 0.099.

E8D: the abundance fitness was -0.125 ± 0.094.

Turning to G12T, the abundance fitness stood at 0.068 ± 0.068.

Turning to P41L, the abundance fitness is -0.072 ± 0.065.

On to P41S, for which the abundance fitness is 0.055 ± 0.068.

Take P41D: the abundance fitness is -0.021 ± 0.092.

Consider L34F, for which the abundance fitness was -0.036 ± 0.075.

For the variant L34E, the abundance fitness came to 0.054 ± 0.097.

S28T: the abundance fitness was -0.083 ± 0.072.

Take S28Y: the abundance fitness was -0.277 ± 0.089.

Consider S28M, for which the abundance fitness is -0.218 ± 0.088.

For the variant S28E, the abundance fitness was -0.05 ± 0.1.

For the variant S28K, the abundance fitness is -0.048 ± 0.091.

For the variant S28D, the abundance fitness is 0.037 ± 0.093.

For the variant F67A, the abundance fitness was -0.123 ± 0.067.

For F67R, the abundance fitness was -0.141 ± 0.06.

Take F67D: the abundance fitness is -0.294 ± 0.084.

As to F67Y, the abundance fitness was -0.022 ± 0.087.

On to P24E, for which the abundance fitness was -0.061 ± 0.086.

P24L: the abundance fitness was -0.113 ± 0.063.

Turning to L36S, the abundance fitness was -0.499 ± 0.063.

On to L57P, for which the abundance fitness is -0.012 ± 0.082.

Regarding K59A, the abundance fitness turned out to be 0.055 ± 0.069.

With K59D, the abundance fitness was -0.022 ± 0.085.

As for K59G, the abundance fitness came to 0.093 ± 0.07.

On to L50F, for which the abundance fitness is -0.026 ± 0.083.

As for E21P, the abundance fitness was -0.35 ± 0.073.

Regarding E21R, the abundance fitness is -0.104 ± 0.063.

Regarding E21N, the abundance fitness is 0.039 ± 0.081.

In the case of E52I, the abundance fitness was -0.042 ± 0.081.

For E52S, the abundance fitness was -0.009 ± 0.063.

For F40G, the abundance fitness was -0.155 ± 0.085.

As for F40S, the abundance fitness is -0.16 ± 0.064.

As for E9A, the abundance fitness was -0.132 ± 0.083.

As for E56P, the abundance fitness stood at 0.094 ± 0.08.

On to K75H, for which the abundance fitness came out at 0.01 ± 0.078.

With K75C, the abundance fitness was -0.148 ± 0.092.

Turning to K75I, the abundance fitness was -0.167 ± 0.081.

Consider K75W, for which the abundance fitness was -0.125 ± 0.087.

For L10D, the abundance fitness was -0.322 ± 0.1.

Consider E68Q, for which the abundance fitness is -0.099 ± 0.078.

S66L: the abundance fitness is -0.137 ± 0.064.

Consider S66T, for which the abundance fitness was determined as 0.029 ± 0.07.

S66I: the abundance fitness was -0.101 ± 0.088.

Regarding S66K, the abundance fitness was -0.066 ± 0.077.

As to S66E, the abundance fitness is 0.048 ± 0.083.

Regarding D62R, the abundance fitness is -0.003 ± 0.065.

D62F: the abundance fitness is -0.138 ± 0.076.

For D62E, the abundance fitness came to 0.058 ± 0.078.

For the variant S6I, the abundance fitness was -0.121 ± 0.09.

I77S: the abundance fitness was -0.165 ± 0.064.

Take I77D: the abundance fitness was -0.17 ± 0.11.

With I77W, the abundance fitness was -0.176 ± 0.086.

Consider L43T, for which the abundance fitness was -0.07 ± 0.069.

Regarding L43I, the abundance fitness is -0.012 ± 0.085.

Take N25C: the abundance fitness is -0.014 ± 0.097.

With L32P, the abundance fitness is -2.71 ± 0.14.

As to L32E, the abundance fitness is -1.72 ± 0.11.

Consider V74Q, for which the abundance fitness stood at 0.102 ± 0.071.

With K76Q, the abundance fitness was -0.056 ± 0.079.

Regarding K76E, the abundance fitness is -0.126 ± 0.1.

For K76H, the abundance fitness was -0.153 ± 0.072.

For S78G, the abundance fitness is -0.329 ± 0.47.

Regarding F70R, the abundance fitness is -0.797 ± 0.066.

F70E: the abundance fitness was -1.25 ± 0.11.
